Changes are numbered by the printed parent chain. In names and notes the source's numbering stands.
How the values were obtained:
PACAP38 [1] = target: T1, PACAP38 (human, not fully specified); assay: SPR (Biacore), 37 C, antibody captured via anti-human Fc, peptide analyte
T1 construct: The background says natural PACAP is alpha-amidated
T1 peptide: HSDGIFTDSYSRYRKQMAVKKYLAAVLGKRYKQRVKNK
Procedure: (§1) In brief, antibody and peptide interaction was determined on a Biacore S200 (GE Healthcare) by method previously described (Andreu and Gomes 2002). An anti-Human IgG Fc capture antibody was immobilized on a CM5 biosensor chip via standard amine coupling. Anti-PACAP antibodies were injected and captured to 200 to 400 response units (RU),). PACAP38, PACAP27 and VIP were diluted in HBS-EP+ buffer containing 0.1% w/v BSA (Bovostar, catalog number BSAS1.0) and 0.15 M NaCl (Sigma-Aldrich catalog number S7653), pH 7.4. Binding kinetics of antibodies were determined by injection of two-fold serial dilutions of PACAPs (12 nm to 0 nM) and VIP (1200 nM to 0 nM) in running buffer at 37° C. with a flow rate of 40 μL/min for 2 min followed by a dissociation for 10 minutes. For subsequent cycles, the chip was regenerated using 0.85% phosphoric acid. Data was analysed with the Biacore S200 Evaluation Software (ver 1.0). Association rate (kₐ) and dissociation rate (kd) constants were determined using a simple one-to-one Langmuir binding model and used to calculate the equilibrium dissociation constant (KD).

PACAP38 [2] = target: T1, PACAP38; assay: cell-based or functional assay
PACAP38 [3] = target: T1, PACAP38; assay: cell-based or functional assay
PACAP38 [4] = target: T1, PACAP38; assay: SPR (Biacore S200) off-rate ranking, antibody captured from supernatant, single injection of 33.3 nM PACAP38
Procedure: as §1, with “Binding kinetics of antibodies were determined by injection of two-fold serial dilutions of PACAPs (12 nm to 0 nM) and VIP (1200 nM to 0 nM) in running buffer at 37° C. with a flow rate of 40 μL/min for 2 min followed by a dissociation for 10 minutes.” left out

VIP [5] = target: T2, VIP (human); assay: cell-based or functional assay
T2 peptide: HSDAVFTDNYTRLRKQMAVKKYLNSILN

PACAP38 [6] = target: T1, PACAP38; assay: cell-based or functional assay
VIP [7] = target: T2, VIP; assay: SPR (Biacore), 37 C, captured antibody; target VIP
Procedure: as §1
(§2) The selectivity of antibody 890C was assessed by comparing the inhibition of PACAP38-signalling to inhibition of VIP-signalling in a cyclic AMP (cAMP) measuring cell-based functional assay.

PACAP38 [8] = target: T1, PACAP38; assay: SPR (Biacore), 37 C, captured antibody; target PACAP38
Procedure: as §1, §2

PACAP38 [9] = target: T1, PACAP38; assay: cell-based or functional assay
GLP-1 = target: T3, GLP-1; assay: SPR (Biacore) at 37 C, captured antibody, 37.5 nM peptide, relative response after 15 sec dissociation
T3 construct: also called Glucagon-Like Peptide 1
T3 peptide: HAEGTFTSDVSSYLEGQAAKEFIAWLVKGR
Procedure: (§3) The anti-PACAP antibodies, e.g., 890C, were tested against related peptides in the Secretin Glucagon family (Table 19) to determine the presence and extent of any off-target binding. Nine bioactive peptides in the glucagon superfamily are: PACAP, VIP, glucagon, Glucagon-Like Peptides (GLP-1, GLP-2), Growth Hormone Releasing Factor (GRF or GHRF), Peptide Histidine Methionine (PHM), secretin, and Gastric inhibitory polypeptide (GIP). Following capture of antibodies as described in example 4, the antibody and the peptide interaction was measured by injection of 37.5 nM of each peptide diluted in buffer at 37° C. with a flow rate of […] for 2 min followed by a dissociation phase of 4-5 min. Samples were injected in a multi-cycle manner over freshly captured anti-PACAP antibody, by regenerating the capture surfaces with two injections of 0.85% phosphoric acid at a flow rate of 30 μL/min.
as §2

Glucagon = assay: as above
Sequence of Glucagon (peptide, as listed by the source): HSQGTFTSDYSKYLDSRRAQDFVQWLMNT
Procedure: as §3, §2

GLP-2 = target: T4, GLP-2; assay: as above
T4 construct: also called Glucagon-Like Peptide 2
T4 peptide: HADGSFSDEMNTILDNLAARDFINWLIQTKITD
Procedure: as §3, §2

PHM = target: T5, PHM; assay: as above
T5 construct: also called Peptide Histidine Methionine
T5 peptide: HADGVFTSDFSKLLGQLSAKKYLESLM
Procedure: as §3, §2

GIP = target: T6, GIP; assay: as above
T6 peptide: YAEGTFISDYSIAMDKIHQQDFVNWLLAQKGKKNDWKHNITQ
Procedure: as §3, §2

GRF = target: T7, GRF; assay: as above
T7 construct: also called GHRF; Growth Hormone Releasing Factor
T7 peptide: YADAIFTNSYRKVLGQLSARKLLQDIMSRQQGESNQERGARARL
Procedure: as §3, §2

Secretin = target: T8, Secretin; assay: as above
T8 peptide: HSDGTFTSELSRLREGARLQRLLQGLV
Procedure: as §3, §2

PACAP27 [10] = target: T9, PACAP27 (human, not fully specified); assay: SPR (Biacore), 37 C, captured antibody; target PACAP27
T9 peptide: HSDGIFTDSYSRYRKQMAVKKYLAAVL
Procedure: as §1, §2

VIP [11] = target: T2, VIP; assay: SPR (Biacore S200), 37 C, captured antibody, steady state affinity
Procedure: as §1
(§4) Due to very fast on-rate and off-rate with VIP, binding affinity at steady state was used.

PACAP38 [12] = target: T1, PACAP38; assay: SPR (Biacore S200), 37 C, captured antibody, peptide dilution series, 1:1 Langmuir fit
Procedure: as §1, §4

PACAP27 [13] = target: T9, PACAP27; assay: as above
Procedure: as §1, §4

B1: 917B (antibody, V domains shown)
VH: EVQLVQSGAEVKKPGSSVKVSCKASGGTFSDSYMHWVRQAPGQGLEWMGLIYPIFADTRYAQKFQGRVTITADESTSTAYMELSSLRSEDTAVYYCAIDQDGSFAYWGQGTLVTVSS
VL: DIVMTQSPDSLAVSLGERATINCKSSQSLLDSDGKTYLNWLQQKPGQPPKRLIYLVSTRESGVPDRFSGSGSGTDFTLTISSLQAEDVAVYYCWQGTWFDLTFGGGTKVEIK
notes: Humanized anti-PACAP variant
Kd (PACAP38 [1]): 0.00969 nM | koff (PACAP38 [1]): 0.000122 s⁻¹ | kon (PACAP38 [1]): 1.26e+07 M⁻¹ s⁻¹ | PACAP-38 IC50 (PACAP38 [2]): 0.19 nM | IC50 (nM), PACAP-induced cAMP accumulation, CHO-K1 cells, cAMP-Glo (PACAP38 [3]): 0.19 nM

B2: 890C (antibody, human IgG2, kappa, V domains shown)
VH: B1 VH with S32V
VL: DIVMTQSPDSLAVSLGERATINCKSSQSLLDADGKTYLNWLQQKPGQPPKRLIYWASTRESGVPDRFSGSGSGTDFTLTISSLQAEDVAVYYCWQGTWFDLTFGGGTKVEIKR
notes: Full chains as named '890C heavy chain' / '890C light chain' (IgG2DASS, kappa); also called anti-PACAP antibody 890C
Kd (PACAP38 [1]): 0.0284 nM | koff (PACAP38 [1]): 0.000671 s⁻¹ | kon (PACAP38 [1]): 2.36e+07 M⁻¹ s⁻¹ | Kd (PACAP38 [4]): 0.0284 nM | koff (PACAP38 [4]): 0.000671 s⁻¹ | kon (PACAP38 [4]): 2.36e+07 M⁻¹ s⁻¹ | IC50 (read off the curve), VIP-induced cAMP production, CHO-K1 cells expressing VPAC1 (VIP [5]): ~600 nM | IC50 (read off the curve), PACAP-induced cAMP production, CHO-K1 cells expressing PAC1 (PACAP38 [6]): ~0.4 nM | fold shift between the PACAP/PAC1 and the VIP/VPAC1 inhibition curves (selectivity for PACAP over VIP) (PACAP38 [6]): 1400 fold | PACAP-38 IC50 (PACAP38 [2]): 0.32 nM | Kd (VIP [7]): 390 nM | Kd (PACAP38 [8]): 0.054 nM | IC50 (nM), PACAP-induced cAMP accumulation, CHO-K1 cells, cAMP-Glo (PACAP38 [3]): 0.32 nM | selectivity, inhibition of PACAP38-induced cAMP production (CHO-K1, PAC1 receptor) versus VIP-induced cAMP production (CHO-K1, VPAC1 receptor) (PACAP38 [9]): > 1000 fold | binding result (GLP-1): no binding (tested: 37.5 nM) | binding result (Glucagon): no binding (tested: 37.5 nM) | binding result (GLP-2): no binding (tested: 37.5 nM) | binding result (PHM): no binding (tested: 37.5 nM) | binding result (GIP): no binding (tested: 37.5 nM) | binding result (GRF): no binding (tested: 37.5 nM) | binding result (Secretin): no binding (tested: 37.5 nM) | Kd (PACAP27 [10]): 0.218 nM

B3: 608C (antibody, V domains shown)
VH: B1 VH with S32L
VL: B2 VL with A32S
Kd (PACAP38 [1]): 0.0284 nM | koff (PACAP38 [1]): 0.00204 s⁻¹ | kon (PACAP38 [1]): 7.19e+07 M⁻¹ s⁻¹ | Kd (PACAP38 [4]): 0.0284 nM | koff (PACAP38 [4]): 0.00204 s⁻¹ | kon (PACAP38 [4]): 7.19e+07 M⁻¹ s⁻¹ | PACAP-38 IC50 (PACAP38 [2]): 0.7 nM | IC50 (nM), PACAP-induced cAMP accumulation, CHO-K1 cells, cAMP-Glo (PACAP38 [3]): 0.7 nM

B4: 605C (antibody, V domains shown)
VH: B1 VH
VL: B1 VL with S32A, L55W, V56A
Kd (PACAP38 [1]): 0.017 nM | koff (PACAP38 [1]): 0.000566 s⁻¹ | kon (PACAP38 [1]): 3.33e+07 M⁻¹ s⁻¹ | Kd (PACAP38 [4]): 0.017 nM | koff (PACAP38 [4]): 0.000566 s⁻¹ | kon (PACAP38 [4]): 3.33e+07 M⁻¹ s⁻¹ | Kd (VIP [11]): 225 nM | PACAP-38 IC50 (PACAP38 [2]): 0.15 nM | Kd (PACAP38 [12]): 0.0328 nM | koff (PACAP38 [12]): 0.000565 s⁻¹ | kon (PACAP38 [12]): 1.72e+07 M⁻¹ s⁻¹ | Kd (PACAP27 [13]): 0.154 nM | koff (PACAP27 [13]): 0.00101 s⁻¹ | kon (PACAP27 [13]): 6.58e+06 M⁻¹ s⁻¹

B5: 627C (antibody, V domains shown)
VH: B1 VH with S32V
VL: B2 VL with A32S
Kd (PACAP38 [1]): 0.0376 nM | koff (PACAP38 [1]): 0.000789 s⁻¹ | kon (PACAP38 [1]): 2.1e+07 M⁻¹ s⁻¹ | Kd (PACAP38 [4]): 0.0376 nM | koff (PACAP38 [4]): 0.000789 s⁻¹ | kon (PACAP38 [4]): 2.1e+07 M⁻¹ s⁻¹ | PACAP-38 IC50 (PACAP38 [2]): 0.4 nM | IC50 (nM), PACAP-induced cAMP accumulation, CHO-K1 cells, cAMP-Glo (PACAP38 [3]): 0.4 nM

B6: 524C (antibody, V domains shown)
VH: B1 VH with T58Q, G102A
VL: B1 VL
notes: LC S(27E), G29, L50, V51, K53T, L54R, D55E, H93W, P95D
Kd (PACAP38 [1]): 0.035 nM | koff (PACAP38 [1]): 0.000546 s⁻¹ | kon (PACAP38 [1]): 1.56e+07 M⁻¹ s⁻¹ | PACAP-38 IC50 (PACAP38 [2]): 0.36 nM

B7: 919A (antibody, V domains shown)
VH: B1 VH with Q100Y
VL: B1 VL with W98H, D100P
notes: Humanized anti-PACAP variant
Kd (PACAP38 [1]): 0.0866 nM | koff (PACAP38 [1]): 0.00584 s⁻¹ | kon (PACAP38 [1]): 6.75e+07 M⁻¹ s⁻¹ | PACAP-38 IC50 (PACAP38 [2]): 1.3 nM

B8: 519C (antibody, V domains shown)
VH: B1 VH with S32L
VL: B1 VL
notes: as for B6
Kd (PACAP38 [1]): 0.0218 nM | koff (PACAP38 [1]): 0.000483 s⁻¹ | kon (PACAP38 [1]): 2.22e+07 M⁻¹ s⁻¹ | PACAP-38 IC50 (PACAP38 [2]): 0.27 nM

B9: 604C (antibody, V domains shown)
VH: B1 VH
VL: B1 VL with L55W, V56A
Kd (PACAP38 [1]): 0.0197 nM | koff (PACAP38 [1]): 0.000319 s⁻¹ | kon (PACAP38 [1]): 1.62e+07 M⁻¹ s⁻¹ | Kd (PACAP38 [4]): 0.0197 nM | koff (PACAP38 [4]): 0.000319 s⁻¹ | kon (PACAP38 [4]): 1.62e+07 M⁻¹ s⁻¹ | PACAP-38 IC50 (PACAP38 [2]): 0.16 nM

B10: 609C (antibody, V domains shown)
VH: B1 VH with S32L
VL: B2 VL
Kd (PACAP38 [1]): 0.0228 nM | koff (PACAP38 [1]): 0.00118 s⁻¹ | kon (PACAP38 [1]): 5.17e+07 M⁻¹ s⁻¹ | Kd (PACAP38 [4]): 0.0228 nM | koff (PACAP38 [4]): 0.00118 s⁻¹ | kon (PACAP38 [4]): 5.17e+07 M⁻¹ s⁻¹ | PACAP-38 IC50 (PACAP38 [2]): 0.83 nM | IC50 (nM), PACAP-induced cAMP accumulation, CHO-K1 cells, cAMP-Glo (PACAP38 [3]): 0.83 nM

Reference: US20260226154A1 (CEPHALON, published 2026)
